Test results reported in patent US20260042806A1 (OXFORD NANOPORE TECHNOLOGIES, published 2026).
No end group written: not given here. *: point of attachment. 4‑(fluorosulfonyl)phenylacetyl = O=C(Cc1ccc(S(=O)(=O)F)cc1)*; Benzoyl(3-SO2F) = O=C(c1cccc(S(=O)(=O)F)c1)*; Benzoyl(4-SO2F) = O=C(c1ccc(S(=O)(=O)F)cc1)*

T1: CsgG (preformed nonameric CsgG pore complexes of Example 2) (Escherichia coli, UniProt P0AEA2 16-277)
T1 construct: Tyr196 fits that numbering; also called CsgG nonameric channel
T1 sequence: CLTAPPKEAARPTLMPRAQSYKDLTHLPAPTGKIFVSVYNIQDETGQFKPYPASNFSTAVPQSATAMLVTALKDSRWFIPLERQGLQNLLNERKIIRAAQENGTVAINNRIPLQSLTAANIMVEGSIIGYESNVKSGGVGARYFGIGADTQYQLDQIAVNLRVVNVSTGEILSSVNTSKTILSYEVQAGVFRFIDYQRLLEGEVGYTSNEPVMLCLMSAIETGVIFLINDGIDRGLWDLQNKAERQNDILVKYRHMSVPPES

T2: CsgG-F56Q pore (ONLP20134) (Escherichia coli, UniProt P0AEA2 16-277)
T2 construct: Oligomeric pore purified from E. coli; also called CsgG-WT-F56Q; CsgG-only pore control
T2 sequence: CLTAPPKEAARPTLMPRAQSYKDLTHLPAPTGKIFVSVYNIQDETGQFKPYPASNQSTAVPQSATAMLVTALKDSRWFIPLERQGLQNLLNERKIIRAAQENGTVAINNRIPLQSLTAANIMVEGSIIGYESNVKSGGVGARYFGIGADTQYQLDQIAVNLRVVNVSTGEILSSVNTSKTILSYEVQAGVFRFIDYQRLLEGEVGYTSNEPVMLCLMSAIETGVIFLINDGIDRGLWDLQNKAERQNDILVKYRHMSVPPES


Experiments:
[1] = molecular target: T1, CsgG (preformed nonameric CsgG pore …); assay: SDS-PAGE time course of the reaction with CsgG
[2] = molecular target: T1, CsgG (preformed nonameric CsgG pore …); assay: insertion of complexes into bilayers; told of the covalent SuTide complexes as a group
[3] = molecular target: T2, CsgG-F56Q pore (ONLP20134); assay: single-channel current traces, MinION flow cell, -180 mV

| Binder | first order rate constant k1 of covalent reaction [1] | halftime (t1/2) of covalent complex formation [1] | fold increase in the proportion of bilayer embedded stable complexes over the non-covalent complex [2] | binding result [3] |
| --- | --- | --- | --- | --- |
| GTMTFQFRNPNFGGNPNNGAFLLNSAQAQK(4‑(fluorosulfonyl)phenylacetyl)-NH2 (N-terminus assumed; SMILES CSCC[C@H](NC(=O)[C@@H](NC(=O)CN)[C@@H](C)O)C(=O)N[C@H](C(=O)N[C@@H](Cc1ccccc1)C(=O)N[C@@H](CCC(N)=O)C(=O)N[C@@H](Cc1ccccc1)C(=O)N[C@@H](CCCNC(=N)N)C(=O)N[C@@H](CC(N)=O)C(=O)N1CCC[C@H]1C(=O)N[C@@H](CC(N)=O)C(=O)N[C@@H](Cc1ccccc1)C(=O)NCC(=O)NCC(=O)N[C@@H](CC(N)=O)C(=O)N1CCC[C@H]1C(=O)N[C@@H](CC(N)=O)C(=O)N[C@@H](CC(N)=O)C(=O)NCC(=O)N[C@@H](C)C(=O)N[C@@H](Cc1ccccc1)C(=O)N[C@@H](CC(C)C)C(=O)N[C@@H](CC(C)C)C(=O)N[C@@H](CC(N)=O)C(=O)N[C@@H](CO)C(=O)N[C@@H](C)C(=O)N[C@@H](CCC(N)=O)C(=O)N[C@@H](C)C(=O)N[C@@H](CCC(N)=O)C(=O)N[C@@H](CCCCNC(=O)Cc1ccc(S(=O)(=O)F)cc1)C(N)=O)[C@@H](C)O, Synthetic peptide: WT CsgF(1-29) with a modified Lys at position 30; also called 4-CH2SO2F-CsgF; CsgF-WT-K30-CH2PH-p-SO2F-del(S31-F119)) [CsgF-K30-CH2-PH-P-SO2F-del(S31-F119)] | ~0.17 h⁻¹ | 4 h | 2 fold | – |
| GTMTFQFRNPNFGGNPNNGAFLLNSAQAQK(Benzoyl(3-SO2F))-NH2 (N-terminus assumed; SMILES CSCC[C@H](NC(=O)[C@@H](NC(=O)CN)[C@@H](C)O)C(=O)N[C@H](C(=O)N[C@@H](Cc1ccccc1)C(=O)N[C@@H](CCC(N)=O)C(=O)N[C@@H](Cc1ccccc1)C(=O)N[C@@H](CCCNC(=N)N)C(=O)N[C@@H](CC(N)=O)C(=O)N1CCC[C@H]1C(=O)N[C@@H](CC(N)=O)C(=O)N[C@@H](Cc1ccccc1)C(=O)NCC(=O)NCC(=O)N[C@@H](CC(N)=O)C(=O)N1CCC[C@H]1C(=O)N[C@@H](CC(N)=O)C(=O)N[C@@H](CC(N)=O)C(=O)NCC(=O)N[C@@H](C)C(=O)N[C@@H](Cc1ccccc1)C(=O)N[C@@H](CC(C)C)C(=O)N[C@@H](CC(C)C)C(=O)N[C@@H](CC(N)=O)C(=O)N[C@@H](CO)C(=O)N[C@@H](C)C(=O)N[C@@H](CCC(N)=O)C(=O)N[C@@H](C)C(=O)N[C@@H](CCC(N)=O)C(=O)N[C@@H](CCCCNC(=O)c1cccc(S(=O)(=O)F)c1)C(N)=O)[C@@H](C)O, Synthetic peptide: WT CsgF(1-29) with a modified Lys at position 30; also called 3-SO2F-CsgF; CsgF-WT-K30-META-SO2F-del(S31-F119)) [CsgF-K30-META-SO2F-del(S31-F119)] | ~1 h⁻¹ | 0.66 h | 2 fold | – |
| GTMTFQFRNPNFGGNPNNGAFLLNSAQAQN (Chemically synthesised peptide; In complex ONLP20783 with CsgG-F56Q; also called CsgF-WT-del(S31-F119); del(S31-F119) CsgF peptide) [CsgF-del(S31-F119)] | – | – | – | binds |
| GTMTFQFRNPNFGGNPNNGAFLLNSAQAQK(Benzoyl(4-SO2F))-NH2 (N-terminus assumed; SMILES CSCC[C@H](NC(=O)[C@@H](NC(=O)CN)[C@@H](C)O)C(=O)N[C@H](C(=O)N[C@@H](Cc1ccccc1)C(=O)N[C@@H](CCC(N)=O)C(=O)N[C@@H](Cc1ccccc1)C(=O)N[C@@H](CCCNC(=N)N)C(=O)N[C@@H](CC(N)=O)C(=O)N1CCC[C@H]1C(=O)N[C@@H](CC(N)=O)C(=O)N[C@@H](Cc1ccccc1)C(=O)NCC(=O)NCC(=O)N[C@@H](CC(N)=O)C(=O)N1CCC[C@H]1C(=O)N[C@@H](CC(N)=O)C(=O)N[C@@H](CC(N)=O)C(=O)NCC(=O)N[C@@H](C)C(=O)N[C@@H](Cc1ccccc1)C(=O)N[C@@H](CC(C)C)C(=O)N[C@@H](CC(C)C)C(=O)N[C@@H](CC(N)=O)C(=O)N[C@@H](CO)C(=O)N[C@@H](C)C(=O)N[C@@H](CCC(N)=O)C(=O)N[C@@H](C)C(=O)N[C@@H](CCC(N)=O)C(=O)N[C@@H](CCCCNC(=O)c1ccc(S(=O)(=O)F)cc1)C(N)=O)[C@@H](C)O, Synthetic peptide: WT CsgF(1-29) with a modified Lys at position 30; also called 4-SO2F-CsgF; CsgF-WT-K30-PARA-SO2F-del(S31-F119)) [CsgF-K30-PARA-SO2F-del(S31-F119)] | ~0.46 h⁻¹ | 1.5 h | 2 fold | – |
